# Experimental data: patent US20220162331A1 (CHENGDU CONMED BIOSCIENCES, published 2022)
# Where a chain is given by its changes, count along the chain named.
# T1: human CD73 on Calu6 cells (human, UniProt P21589 27-549)
# T1 construct: whole, on cells; Endogenous CD73 of the Calu6 cell line; also called CD73 on cell membrane surface
# T1 sequence (looked up): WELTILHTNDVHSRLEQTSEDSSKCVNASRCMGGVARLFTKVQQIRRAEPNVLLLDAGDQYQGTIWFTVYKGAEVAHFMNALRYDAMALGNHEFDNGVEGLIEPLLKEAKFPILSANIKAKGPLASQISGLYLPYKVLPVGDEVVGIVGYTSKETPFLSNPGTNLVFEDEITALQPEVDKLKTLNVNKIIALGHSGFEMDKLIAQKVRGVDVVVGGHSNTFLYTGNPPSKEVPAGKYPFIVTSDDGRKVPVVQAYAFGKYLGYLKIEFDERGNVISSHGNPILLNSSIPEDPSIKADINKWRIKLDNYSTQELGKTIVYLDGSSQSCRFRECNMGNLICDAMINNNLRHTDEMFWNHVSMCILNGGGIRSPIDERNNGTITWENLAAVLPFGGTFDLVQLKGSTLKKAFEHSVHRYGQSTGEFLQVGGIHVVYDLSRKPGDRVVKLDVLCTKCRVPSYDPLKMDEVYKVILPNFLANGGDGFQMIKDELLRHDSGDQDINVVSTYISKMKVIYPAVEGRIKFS
# T2: human full-length CD73 on hCD73-CHO-1C11 cells (human, UniProt P21589 27-549)
# T2 construct: it may be a nucleotide entry; also called CHO-CD73-1C11
# T2 sequence: T1 sequence (looked up)
# T3: recombinant human CD73 extracellular domain (Trp27-Lys546) with C-terminal 6-histidine tag (human, UniProt P21589 27-547)
# T3 construct: also called hCD73; hCD73-cHis
# T3 sequence: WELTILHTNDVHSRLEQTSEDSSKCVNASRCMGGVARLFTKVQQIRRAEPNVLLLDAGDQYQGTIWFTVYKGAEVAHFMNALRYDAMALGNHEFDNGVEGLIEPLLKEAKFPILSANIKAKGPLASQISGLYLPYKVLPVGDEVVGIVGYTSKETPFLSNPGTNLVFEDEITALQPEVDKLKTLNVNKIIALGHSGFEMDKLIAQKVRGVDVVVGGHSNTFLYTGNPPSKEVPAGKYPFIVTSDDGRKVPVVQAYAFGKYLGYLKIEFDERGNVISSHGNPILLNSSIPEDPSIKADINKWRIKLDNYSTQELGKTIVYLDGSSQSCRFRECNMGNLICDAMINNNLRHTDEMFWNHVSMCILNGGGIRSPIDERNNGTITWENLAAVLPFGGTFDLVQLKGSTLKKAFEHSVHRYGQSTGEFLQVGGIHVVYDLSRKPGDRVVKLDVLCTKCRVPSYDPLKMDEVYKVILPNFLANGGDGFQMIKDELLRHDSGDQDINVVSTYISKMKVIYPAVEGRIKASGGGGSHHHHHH
# T4: recombinant cynomolgus monkey CD73 extracellular domain (Trp27-Lys546) (cynomolgus monkey, UniProt P21589 27-547 (human entry))
# T4 construct: also called cynoCD73; recombinant monkey CD73 extracellular domain
# T4 chain: T3 sequence with M199T, T350A, V466I
# B1: CD73 antibody 2D4 (antibody, V domains shown)
# VH: EVKLVESGGGLVQPGGSLKLSCATSGFTFSDYYMYWVRQTPEKRLEWVAYISNVGGSTYYPDTVKGRFTISRDNAKNTLYLQMSRLKSEDTAIYYCARGDGYYGYYFDVWGAGTTVTVSS
# VL: QIVLTQSPAIMSASPGEKVTMTCSASSSVSYMHWYQQKSGTSPKRWIYDTSKLASGVPARFSGSGSGTSYSLTISSMEAEDAATYYCQQWSSNPYTFGGGTKLEIK
# notes: also called Clone 2D4
# B2: CD73 antibody 2H2 (antibody, V domains shown)
# VH: B1 VH with I93M
# VL: B1 VL with Q1E, I2N, A59T, Y70F
# notes: also called Clone 2H2
# B3: CD73 antibody 14E4 (antibody, V domains shown)
# VH: QVQLQQSGPELVKPGASVKISCKASGYIFTNYYIHWVKQRPGQGLEWIGWIFPGSGNTKYSEKFKDKATLTADTSSSTAYMQLSSLTSEDSAVYFCAGLSDWGQGTTLTVSS
# VL: DIQMTQSPSSLSASLGERVSLTCRASQDIGDRLIWLQQEPAGTFKRLIYATSSLDSGVPKRFSGSRSGSDYSLTISSLESEDFVDYYCLQYASSPWTFGGGTKLEIK
# notes: Mouse variable regions on human IgG heavy chain constant region and human kappa constant region (chimeric IgG); also called Clone 14E4
# B4: CD73 antibody 14H10 (antibody, V domains shown)
# VH: QIQLQQSGAELARPGASVNLSCKASGYSFTSYWMQWLKQRPGQGLEWIGAIYPGDGDTRYTQKFKGKATLTADKSSSTAYMQLSSLASEDSAVYYCALFSYWGQGTLVTVSA
# VL: B3 VL with D31S, R32S, I34N, A41D, S53T, S94F, W96Y
# notes: Mouse variable regions on human IgG heavy chain constant region and human kappa constant region (chimeric IgG)
# B5: CD73 antibody 6A8 (antibody, V domains shown)
# VH: QVQFQQSGAELARPGTSVKLSCKASGYIFTSYWIQWIKQRPGQGLEWIGAIYPGDGDTRYTQKFKGKATLTAEKSSSTAYMQLRSLASEDSAVYYCAGFASWGQGTLLTVSA
# VL: B3 VL with S20N, R32S, A41D, F44I, F83L, W96F
# notes: Mouse variable regions on human IgG heavy chain constant region and human kappa constant region (chimeric IgG); also called Clone 6A8
# B6: CD73 antibody 7E10 (antibody, V domains shown)
# VH: B5 VH with A12V, T16A, T30S, I37V, G66D, E73D, R84S, L108V
# VL: B3 VL with D31S, R32S, I34N, A41N, F44I, V84A, W96Y
# notes: Mouse variable regions on human IgG heavy chain constant region and human kappa constant region (chimeric IgG); also called Clone 7E10
# B7: CD73 antibody 8A8 (antibody, V domains shown)
# VH: B5 VH with T16A, E73D
# VL: B3 VL with D31E, R32S, A41D, F44I, T74S, E81D, A92S, W96Y
# notes: Mouse variable regions on human IgG heavy chain constant region and human kappa constant region (chimeric IgG); also called Clone 8A8
# B8: CD73 antibody 22C12 (antibody, V domains shown)
# VH: QVQFQQSGAELARPGASVKLSCKASGYTFTGYWIQWVKQRPGQGLEWIGAIYPGDDDTRYTQKFKGRATLTADTSSSTAYMQLSSLASEDSAVYYCARGNWDDWDFDVWGAGTTVTVSS
# VL: DIQMTQTTSSLSASLGDRVTISCRASQDISNYLNWYQQKPDGTVKLLIHYTSRLHSGVPSRFSGSGSGTDYSLTISNLEQEDIATYFCQQGDTLPWTFGGGTKLEIK
# notes: Mouse variable regions on human IgG heavy chain constant region and human kappa constant region (chimeric IgG); also called Clone 22C12; mAb22C12
# B9: humanized anti-CD73 antibody 6G8 VH-v1/VK-v1 (antibody, V domains shown)
# VH: QVTLRESGPALVKPTQTLTLTCTFSGFSLSTSGMGVGWIRQPPGKALEWLAHIWWDDDKYYNPSLKSRLTISKDTSKNQVVLTMTNMDPVDTATYYCARRERWAWFAYWGQGTLVTVSS
# VL: DIQMTQSPSSLSASVGDRVTITCRASQNVFTNVAWYQQKPGKAPKVLIYSASYRYSGVPSRFSGSGSGTDFTLTISSLQPEDFATYFCQQYNSYPTFGQGTKLEIK
# notes: Human IgG1 CH1-CH3 constant region and kappa constant region; also called hu6G8 VHv1 + hu6G8 Vkv1
# B10: humanized anti-CD73 antibody 22C12 VH-v10/VL-v2 (antibody, V domains shown)
# VH: QVQLVQSGAEVKKPGASVKVSCKASGYTFTGYWIQWVRQAPGQGLEWMGAIYPGDEDTRYTQKFQGRVTMTADTSISTAYMELSRLRSDDTAVYYCARGNWDDWDFDVWGQGTTVTVSS
# VL: DIQMTQSPSSLSASVGDRVTITCRASQDISNYLNWYQQKPGKAPKLLIHYTSRLHSGVPSRFSGSGSGTDYTLTISSLQPEDFATYYCQQGDTLPWTFGQGTKVEIK
# notes: Human IgG1 CH1-CH3 constant region and kappa constant region; also called hu22C12 VHv10 (printed hu22C12 Vilv10) + hu22C12 Vkv2
# B11: humanized anti-CD73 antibody 22C12 VH-v10/VL-v3 (antibody, V domains shown)
# VH: B10 VH
# VL: B10 VL with Y71F
# notes: Human IgG1 CH1-CH3 constant region and kappa constant region; also called hu22C12 VHv10 (printed hu22C12 Vilv10) + hu22C12 Vkv3
# B12: humanized anti-CD73 antibody 22C12 VH-v9/Vk-v2 (antibody, V domains shown)
# VH: B10 VH with E56S
# VL: B10 VL
# notes: Human IgG1 CH1-CH3 constant region and kappa constant region; also called hu22C12 VHv9 (printed hu22C12V11v9) + hu22C12 Vkv2
# Molecular target: T1, human CD73 on Calu6 cells
# Assay: FACS on Calu6 cells
row,EC50 [nM],Binder
1,1.25,B1
2,0.93,B2
3,2.56,B3
4,2.28,B4
5,3.51,B5
6,2.52,B6
7,0.61,B7
8,1.2,B8

# Molecular target: T1, human CD73 on Calu6 cells
# Assay: cell-based or functional assay
row,"Inhibition of CD73 enzyme activity IC50(nM), Calu6 [nM]",Binder
1,0.47,B1
2,4.03,B2
3,4.57,B3
4,1.71,B4
5,6.63,B5
6,7.66,B6
7,4.89,B7
8,0.97,B8

# Molecular target: T1, human CD73 on Calu6 cells
# Assay: cell-based or functional assay
# Remark: another data set of the same source
"CD73 endocytosis ratio %, 30 minutes [%]","CD73 endocytosis ratio %, 60 minutes [%]","CD73 endocytosis ratio %, 120 minutes [%]","CD73 endocytosis ratio %, 240 minutes [%]","CD73 endocytosis ratio %, 480 minutes [%]",Binder
19.1,28.1,29.7,39.5,36.9,B1
22.4,27.4,45.8,33.4,49.3,B2
,19.3,2.6,12.7,2.6,B3
,33.1,,,,B4
,16.2,,,,B5
9.9,25.1,,6.6,6.2,B6
21.2,25.6,27.3,44.2,40.5,B7
,6.1,11.1,,13.2,B8

# Molecular target: T2, human full-length CD73 on …
# Assay: FACS on CHO-CD73-1C11 cells
row,EC50 [nM],Binder
1,1.76,B1
2,1.53,B2
3,6.55,B3
4,2.62,B4
5,11,B5
6,8.59,B6
7,1.47,B7
8,1.43,B8

# Molecular target: T3, recombinant human CD73 extracellular …
# Assay: ELISA, plate coated with recombinant CD73 extracellular domain
row,EC50 [nM],Binder
1,0.02,B1
2,0.02,B2
3,0.06,B3
4,0.03,B4
5,0.08,B5
6,0.07,B6
7,0.02,B7
8,0.04,B8

# Molecular target: T4, recombinant cynomolgus monkey CD73 …
# Assay: as above
row,EC50 [nM],Binder
1,0.02,B1
2,0.02,B2
3,0.18,B3
4,0.07,B4
5,0.09,B5
6,0.11,B6
7,0.02,B7
8,0.05,B8

# Molecular target: T3, recombinant human CD73 extracellular …
# Assay: SPR, Biacore T200, antibody captured on Protein A chip, hCD73 ECD as analyte, 1:1 Langmuir
# Method: The affinity of CD73 antibody was determined by plasma surface resonance on Biacore T200. At room temperature, the antibody concentration was diluted to 0.5 μg/mL with 1×HBS-EP buffer (prepared from HBS-EP+Buffer 10×, GE, BR1008-26), the Protein A chip (GE, 29-1275-56) was coated with a flow rate of 10 μL per minute, the capture time was about 40 seconds, and the coated RU value was controlled to be about 100 RU. The recombinant human CD73 extracellular domain protein was diluted to 3 μg/mL with 1×HBS-EP buffer, diluted to two-fold gradient, a total of 6 concentrations, 200 μL of each concentration gradient. The 1×HBS-EP buffer was used as a control, the flow rate was 30 μl/min, the binding time was 120 seconds, and the dissociation time was 600 seconds. The affinity was fitted using Langmuir 1:1 Kinetic theoretical model and analyzed by Biacore T200 Evaluation Software (Table 3).
Kd [nM],koff [s⁻¹],kon [M⁻¹ s⁻¹],Binder
0.272,0.000106,389000,B9
0.134,0.000225,1.68e+06,B10
0.0956,0.000179,1.87e+06,B11
0.135,0.000165,1.22e+06,B12
